# Test: Differential scanning calorimetry (VP-DSC) of tetranectin trimerisation domain and deletion peptides
# Format: physicochemical
# Conditions: for TM if N is free: in °C
# Procedure: A characterization of the thermal stability of the trimerisation domain of tetranectin was obtained using DSC, both of the full length trimerisation domain and of deletion mutants.
# The DSC scans were conducted on a VP-DSC from MicroCal LLC (Northampton, Mass.). For most of the scans a PBS buffer containing 110 mM NaCl and 40 mM NaPO4 was used. The pH was 7.4. The scans were made from 10 to 110° C. under approximately 25 psi at a scan rate of 1° C./min and a pre-scan period of 20 minutes. At least two scans with buffer in both chambers were conducted before removal of buffer from both chambers and the filling with new buffer and protein/peptide solution to the reference and sample chamber respectively.
# Peptides were synthesized by an outside vendor and were based on the tetranectin sequence, however, minor modifications were applied. In particular, the residue corresponding to Cys 50 was changed to a Serine. Also, residue number 28 is in native TN polymorphic, being either a Ser or an Ala. In the following experiments, Ala was selected. In addition, the N and C-terminal of the peptides were modified to remove charge and mimic natural peptides, increase stability toward digestion by aminopeptidases and block against synthetase activity. In the N-terminal deletion class peptides the N-terminal is acetylated and the C-terminal is prolonged with a β-Ala and a Cys. For the C-terminal deletion class peptides the modification are amidation of the C-terminal and all the sequences start with Cys-βAla.
# Since these peptides were lyophilized from a TFA solution the pH of the redissolved peptides had to be adjusted. This was done using our micro-pH meter from Unisense. The pH was adjusted to the same mV value as found for the buffer by adding small portions of 0.2 M NaOH to the solution immediately followed by mixing. In order to prevent disulphide-bridge dimerisation and possible stabilization of the multimeric structures all scanning of peptides were conducted in 5 mM β-mercaptoethanol. Prior to scanning and addition of β-mercaptoethanol the sample and buffer were extensively degassed under vacuum while stirring.
# Trip-A (SEQ ID NO:42) was scanned at concentrations ranging from 2 mM to 0.125 mM, by lowering the concentration by a factor 2. This corresponds to protein concentrations from 12.7 mg-ml to 0.80 mg/mL. […] The difference between the two-state model and the non-2-state model can be stated as that the non-2-state model contains a contribution to the unfolding energy from co-operative stabilization of subunits. This leads to a sharpening of the peak. The parameter introduced relative to the 2-state model is called the ΔHv, or the van't Hoff enthalpy. The ratio between ΔHv and ΔH can be taken as a measurement of the number of subunits in one unfolding unit. The result is shown on FIG. 13 and Table 6. The data is from one representative scan and fitted to the non-2-state model.
# The “dissociation with dCp” model describes a system where unfolding and dissociation of a multisubunit protein is simultaneous. The data is from one representative scan and fitted to the “dissociation with dCp” model. The ΔHm and dCp value is per trimer.
# [1] = Trip-A 0.125 mM, dissociation with dCp model
# [2] = Trip-A 0.125 mM, dissociation with dCp model, per trimer
# [3] = Trip-A 0.125 mM, non-2-state model, PBS pH 7.4
# [4] = Trip-A 0.25 mM, dissociation with dCp model
# [5] = Trip-A 0.25 mM, dissociation with dCp model, per trimer
# [6] = Trip-A 0.25 mM, non-2-state model, PBS pH 7.4
# [7] = Trip-A 0.5 mM, Down, first scan
# [8] = Trip-A 0.5 mM, Down, first scan, per trimer
# [9] = Trip-A 0.5 mM, Down, sec. scan, per trimer
# [10] = Trip-A 0.5 mM, Up, first scan, per trimer
# [11] = Trip-A 0.5 mM, Up, second scan, per trimer
# [12] = Trip-A 0.5 mM, dissociation with dCp model
# [13] = Trip-A 0.5 mM, dissociation with dCp model, per trimer
# [14] = Trip-A 0.5 mM, non-2-state model, PBS pH 7.4
# [15] = Trip-A 1.0 mM, dissociation with dCp model
# [16] = Trip-A 1.0 mM, dissociation with dCp model, per trimer
# [17] = Trip-A 1.0 mM, non-2-state model, PBS pH 7.4
# [18] = Trip-A 2.0 mM, dissociation with dCp model
# [19] = Trip-A 2.0 mM, dissociation with dCp model, per trimer
# [20] = Trip-A 2.0 mM, non-2-state model, PBS pH 7.4
substance,measurement,setting,value
Trip-A: full length trimerisation domain of tetranectin (SEQ ID NO:42) (SPGTEPPTQKPKKIVNAKKDVVNTKMFEELKARLDTLSQEVALLKEQQALQTVSLKGS),Rev. (%),"Table 10, N-terminal deletion peptides, Conc per construct",97.6%
same,ΔHm (kJ/mol(trimer)),"Table 10, N-terminal deletion peptides, dissociation with dCp model, Conc per construct",319.2 ± 0.4 kJ/mol(trimer)
same,TM (° C.),"Table 10, N-terminal deletion peptides, dissociation with dCp model, PBS pH 7.4, Conc per construct 0.32-0.63 (column Conc)",84.7 ± 0.1 °C
same,dCp (kJ/molK),"Table 10, N-terminal deletion peptides, per trimer, Conc per construct",0.7 ± 0.1 kJ/molK
same,Rev. (%),"Table 11, C-terminal deletion peptides, Conc per construct",97.6%
same,ΔHm (kJ/mol(trimer)),"Table 11, C-terminal deletion peptides, dissociation with dCp model, Conc per construct",319.2 ± 0.4 kJ/mol(trimer)
same,TM (° C.),"Table 11, C-terminal deletion peptides, dissociation with dCp model, PBS pH 7.4, Conc per construct 0.4-0.63 (column Conc)",84.7 ± 0.1 °C
same,dCp (kJ/molK),"Table 11, C-terminal deletion peptides, per trimer, Conc per construct",0.7 ± 0.1 kJ/molK
same,Rev. (%),[1],98.9%
same,TM (° C.) (N = 3),[1],82.2 ± 0.3 °C
same,N (free),[1],1.88
same,TM if N is free,[1],78.9 ± 0.3
same,dCp (kJ/molK),[2],2.4 ± 0.2 kJ/molK
same,ΔHm,[2],66.2 ± 0.454 kcal/mol
same,Reversibility (%),[3],94.2%
same,TM (° C.),[3],73.1 ± 0.03 °C
same,ΔH,[3],15.2 ± 0.048 kcal/mol
same,ΔHv,[3],42.52 ± 0.14 kcal/mol
same,ΔHv/ΔH,[3],2.8
same,Rev. (%),[4],98.2%
same,TM (° C.) (N = 3),[4],81.4 ± 0.1 °C
same,N (free),[4],2.48
same,TM if N is free,[4],81.2 ± 0.1
same,dCp (kJ/molK),[5],3.3 ± 0.1 kJ/molK
same,ΔHm,[5],68 ± 0.17 kcal/mol
same,Reversibility (%),[6],95.6%
same,TM (° C.),[6],75.9 ± 0.1 °C
same,ΔH,[6],12.7 ± 0.096 kcal/mol
same,ΔHv,[6],46.03 ± 0.406 kcal/mol
same,ΔHv/ΔH,[6],3.6
same,Rev. (%),[7],68.9%
same,TM (° C.),"Trip-A 0.5 mM, Down, first scan (refolding), dissociation with dCp model",79.8 ± 0.1 °C
same,N (free),[7],0.66
same,TM if N is free,[7],81.4 ± 0.4
same,dCp (kJ/molK),[8],3.5 ± 0.1 kJ/molK
same,ΔHm,[8],-59.51 ± 0.311 kcal/mol
same,Rev. (%),"Trip-A 0.5 mM, Down, sec. scan",85.6%
same,TM (° C.),"Trip-A 0.5 mM, Down, sec. scan (refolding), dissociation with dCp model",80.2 ± 0.2 °C
same,N (free),"Trip-A 0.5 mM, Down, sec. scan",1.45
same,TM if N is free,"Trip-A 0.5 mM, Down, sec. scan",85.6 ± 0.3
same,dCp (kJ/molK),[9],6.9 ± 0.1 kJ/molK
same,ΔHm,[9],-40.99 ± 0.526 kcal/mol
same,Rev. (%),"Trip-A 0.5 mM, Up, first scan",94.2%
same,N (free),"Trip-A 0.5 mM, Up, first scan",2.13
same,TM if N is free,"Trip-A 0.5 mM, Up, first scan",84.0 ± 0.1
same,TM (° C.),"Trip-A 0.5 mM, Up, first scan, dissociation with dCp model",82.3 ± 0.1 °C
same,dCp (kJ/molK),[10],1.7 ± 0.1 kJ/molK
same,ΔHm,[10],68.91 ± 0.14 kcal/mol
same,Rev. (%),"Trip-A 0.5 mM, Up, second scan",94.0%
same,N (free),"Trip-A 0.5 mM, Up, second scan",3.7
same,TM if N is free,"Trip-A 0.5 mM, Up, second scan",80.3 ± 0.1
same,TM (° C.),"Trip-A 0.5 mM, Up, second scan, dissociation with dCp model",81.7 ± 0.1 °C
same,dCp (kJ/molK),[11],2.0 ± 0.1 kJ/molK
same,ΔHm,[11],64.89 ± 0.072 kcal/mol
same,Rev. (%),[12],97.6%
same,TM (° C.) (N = 3),[12],84.7 ± 0.1 °C
same,N (free),[12],3.93
same,TM if N is free,[12],83.5 ± 0.1
same,dCp (kJ/molK),[13],0.67 ± 0.01 kJ/molK
same,ΔHm,[13],76.29 ± 0.096 kcal/mol
same,Reversibility (%),[14],94.1%
same,TM (° C.),[14],81.4 ± 0.1 °C
same,ΔH,[14],11.6 ± 0.096 kcal/mol
same,ΔHv,[14],55.59 ± 0.574 kcal/mol
same,ΔHv/ΔH,[14],4.8
same,Rev. (%),[15],97.6%
same,TM (° C.) (N = 3),[15],83.2 ± 0.1 °C
same,N (free),[15],2.21
same,TM if N is free,[15],86.0 ± 0.1
same,dCp (kJ/molK),[16],0.58 ± 0.02 kJ/molK
same,ΔHm,[16],72.49 ± 0.14 kcal/mol
same,Reversibility (%),[17],97.7%
same,TM (° C.),[17],86.5 ± 0.1 °C
same,ΔH,[17],8.82 ± 0.14 kcal/mol
same,ΔHv,[17],65.06 ± 1.29 kcal/mol
same,ΔHv/ΔH,[17],7.4
same,Rev. (%),[18],95.6%
same,TM (° C.) (N = 3),[18],85.2 ± 0.4 °C
same,N (free),[18],5.67
same,TM if N is free,[18],77.0 ± 0.5
same,dCp (kJ/molK),[19],−7.1 ± 0.5 kJ/molK
same,ΔHm,[19],91.9 ± 0.813 kcal/mol
same,Reversibility (%),[20],105 (!) %
same,TM (° C.),[20],90.4 ± 0.1 °C
same,ΔH,[20],7.74 ± 0.072 kcal/mol
same,ΔHv,[20],66.9 ± 0.837 kcal/mol
same,ΔHv/ΔH,[20],8.6
same,Rev (%),"Trip-A, pH 3.0",93.1%
same,TM (° C.),"Trip-A, pH 3.0 (100 mM NaCl 25 mM NaPO4)",84.6 ± 0.2 °C
same,dCp (kJ/molK),"Trip-A, pH 3.0, per trimer",11.9 ± 0.3 kJ/molK
same,ΔHm,"Trip-A, pH 3.0, per trimer",71.2 ± 0.693 kcal/mol
same,Rev (%),"Trip-A, pH 4.0",88.1%
same,TM (° C.),"Trip-A, pH 4.0 (100 mM NaCl 25 mM NaAcetat)",82.6 ± 0.1 °C
same,dCp (kJ/molK),"Trip-A, pH 4.0, per trimer",0.12 ± 0.07 kJ/molK
same,ΔHm,"Trip-A, pH 4.0, per trimer",70.29 ± 0.22 kcal/mol
same,Rev (%),"Trip-A, pH 7.4",97.6%
same,TM (° C.),"Trip-A, pH 7.4",84.7 ± 0.1 °C
same,dCp (kJ/molK),"Trip-A, pH 7.4, per trimer",0.67 ± 0.05 kJ/molK
same,ΔHm,"Trip-A, pH 7.4, per trimer",76.29 ± 0.096 kcal/mol
same,Tm values,"across concentrations 0.125-2 mM, dissociation with dCp model",81-85 °C
same,ΔHm,"across concentrations, dissociation with dCp model",approximately 300 kJ/mole
same,stability to pH,"scans at pH 3.0, 4.0 and 7.4",exhibits stability to pH
